Molecular target: HLA-DR1 (HLA-DRB1*01:01), soluble recombinant MHCII (human)
Assay: fluorescence polarisation

HA(306-318), unlabeled influenza hemagglutinin peptide
IC50: 0.025 µM
